According to publication PMC5532214, “Natural variations in the biofilm-associated protein BslA from the genus Bacillus” (Scientific Reports, 2017):

Tests used:
Test in all cases: SEC; purified, untagged mature regions of the proteins analysed by size exclusion chromatography; SDS-PAGE with and without β-mercaptoethanol was run alongside
[1] = biological target: Bacillus licheniformis BslA(40-179) (Bacillus licheniformis DSM13)
[2] = biological target: Bacillus amyloliquefaciens BslA(42-181) (Bacillus amyloliquefaciens FZB42)
[3] = biological target: Bacillus pumilus BslA(37-177) (Bacillus pumilus SAFR-032)
[4] = biological target: the molecule itself

Bacillus licheniformis BslA(40-179) (domain or fragment)
stoichiometry N [1]: 2

Bacillus amyloliquefaciens BslA(42-181) (domain or fragment)
stoichiometry N [2]: 2

Bacillus pumilus BslA(37-177) (domain or fragment)
stoichiometry N [3]: 2

B1: Bacillus subtilis BslA(42-181) (domain or fragment, B. subtilis, UniProt P71014 42-181, looked up)
chain: MRTQSTASLFATITGASKTEWSFSDIELTYRPNTLLSLGVMEFTLPSGFTANTKDTLNGNALRTTQILNNGKTVRVPLALDLLGAGEFKLKLNNKTLPAAGTYTFRAENKSLSIGNKFYAEASIDVAKRSTPPTQPCGCN
notes: BslA of Bacillus subtilis, truncated protein BslA 42-181 (mature region), on which the previous analyses were based; also called Bs-BslA; source: E. coli BL21 (DE3) pLysS, purified (Glutathione Sepharose, TEV cleavage, SEC)
stoichiometry N [4]: 2
